Source: US20260250338A1 (Molecular Partners, published 2026)
Blank lines part the entries; values can stand above or below the binder they belong to.

Legend:
[1] = molecular target: T1, CD16aV allotype of human CD16a expressed on Jurkat-Lucia-NFAT-CD16 Reporter cells (InvivoGen) (human, UniProt P08637 17-254); experiment: cell-based or functional assay
[2] = molecular target: T1, CD16aV allotype of human CD16a …; experiment: cell-based or functional assay; remark: listed apart in the source
[3] = molecular target: T2, CD32a expressed on Jurkat-NFAT-CD32a reporter cells (Invivogen jktl-nfat-cd32) (UniProt P12318 34-317, limits assumed); experiment: flow cytometry on Jurkat-NFAT-CD32a cells, 4-fold serial dilutions, detection with anti-DARPin 1.1.1 antibody
T2 construct: whole, on cells; also called Jurkat-Lucia NFAT-CD32a Reporter cells; Fc receptor CD32a
T2 sequence (looked up): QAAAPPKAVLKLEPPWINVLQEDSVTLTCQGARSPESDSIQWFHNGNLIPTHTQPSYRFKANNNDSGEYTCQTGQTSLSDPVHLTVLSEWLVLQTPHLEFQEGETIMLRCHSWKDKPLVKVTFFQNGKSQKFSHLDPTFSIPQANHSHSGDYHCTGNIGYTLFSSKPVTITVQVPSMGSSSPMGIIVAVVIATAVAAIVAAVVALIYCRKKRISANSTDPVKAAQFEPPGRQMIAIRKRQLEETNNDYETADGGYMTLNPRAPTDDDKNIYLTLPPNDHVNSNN
Method: Serial dilutions (4-fold) of the constructs were incubated 30 min at 4° C. with 50000 cells in a 96-well plate. Detection antibody (anti-DARPin 1.1.1 Alexa Fluor […]) was subsequently added to the wells (2 μg/ml diluted in FACS buffer) and incubated at 4° C. for 30 min. Cold buffer was added, then cells were spun down prior to supernatant removal. Cells were then fixed with Cell fix buffer (BD) and signal was measured by flow cytometry.

[4] = molecular target: T3, full length human CD16b stably expressed on transduced WT Jurkat cells (human, UniProt O75015 17-200); experiment: flow cytometry on Jurkat-CD16b cells, serial dilutions, detection with Penta-His Alexa Fluor 647
T3 construct: whole, on cells; also called CD16b expressing cells; Jurkat CD16b

[5] = molecular target: T3, full length human CD16b stably …; experiment: flow cytometry on Jurkat-CD16b cells, 5-fold serial dilutions, detection with Penta-His Alexa Fluor 488
Method: Serial dilutions (5-fold) of the constructs were incubated 30 min at 4° C. with 50000 cells in a 96-well plate. […] Cold buffer was added, then cells were spun down prior to supernatant removal. Cells were then fixed with Cell fix buffer (BD) and signal was measured by flow cytometry.

T1 sequence (P08637 17-254 F176V): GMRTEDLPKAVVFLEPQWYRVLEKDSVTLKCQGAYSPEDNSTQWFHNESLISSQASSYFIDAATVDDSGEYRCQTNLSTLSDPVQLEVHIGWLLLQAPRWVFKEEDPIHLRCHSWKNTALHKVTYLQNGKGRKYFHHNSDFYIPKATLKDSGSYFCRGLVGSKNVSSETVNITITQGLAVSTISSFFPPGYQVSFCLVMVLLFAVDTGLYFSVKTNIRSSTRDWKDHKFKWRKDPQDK
T3 sequence (O75015 17-200): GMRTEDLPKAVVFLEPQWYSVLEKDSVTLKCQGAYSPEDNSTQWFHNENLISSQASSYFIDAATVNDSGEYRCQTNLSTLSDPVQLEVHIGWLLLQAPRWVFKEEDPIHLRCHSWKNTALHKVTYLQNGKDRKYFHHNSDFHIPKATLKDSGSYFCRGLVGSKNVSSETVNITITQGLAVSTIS

B1: Construct No. 21 (SEQ ID NO: 90), CD117 × CD16a, CD117 binder SEQ ID NO: 85 and DARPin #2 (designed binder)
chain: MRGSHHHHHHGSDLGAKLLKAAQSGQDDEVRILLAAGADVNAKDKDGYTPLHLAAREGHLEIVEVLLKAGSDVNAKDYYGETPLHQAAEYGHLEIVEVLLKAGADVNAQDEWGATPADLAAQQGHEDIAEVLQKAAGSPTPTPTTPTPTPTTPTPTPTGSDLGQKLLRAAKKGQDDEVRELLKAGADVNAKDEQGWTPLHIAAWKGHLEIVEVLLKAGADVNAKDVFDWTPLHVAAHFGHLEIVEVLLKAGADVNAQDRAGETPADLAAQAGHEDIAEVLQKAA
- EC50 (pM), DDCC reporter assay (luminescence), Kasumi-1 target cells, E:T 1:1, 24 h [1]: 32.3 pM
- Top (RLU), DDCC reporter assay (luminescence), Kasumi-1 target cells [1]: 23200 RLU

B2: Construct No. 9 (SEQ ID NO: 14), 2D (HER2 × CD16a), DARPin #3 with N-terminal HER2 binder of SEQ ID NO: 8 (designed binder)
chain: MRGSHHHHHHGSDLGKKLLEAARAGQDDEVRELLKAGADVNAKDEYGLTPLYLATAHGHLEIVEVLLKAGADVNAVDAIGFTPLHLAAFIGHLEIAEVLLKAGADVNAQDKFGKTPADIAAGAGNEDIAEVLQKAAGSPTPTPTTPTPTPTTPTPTPTGSDLGKKLLQAARAGQLDEVRELLKAGADVNAKDEQGRTPLHIAAASGHLEIVEVLLKAGADVNAKDWFGITPLHIAAWWGHLEIVEVLLKAGADVNAKDQEGRTPLHIAAAIGHLEIVEVLLKAGADVNAQDKSGKTPADLAARAGHQDIAEVLQKAA
- EC50 (pM), ADCC reporter assay (luminescence), SKOV3 target cells, E:T 5:1, 5 h [2]: 1.6 pM

B4: Construct No. 6 (SEQ ID NO: 17), 2D (CD16a × HER2), DARPin #3 with C-terminal HER2 binder of SEQ ID NO: 9 (designed binder)
chain: MRGSHHHHHHGSDLGKKLLQAARAGQLDEVRELLKAGADVNAKDEQGRTPLHIAAASGHLEIVEVLLKAGADVNAKDWFGITPLHIAAWWGHLEIVEVLLKAGADVNAKDQEGRTPLHIAAAIGHLEIVEVLLKAGADVNAQDKSGKTPADLAARAGHQDIAEVLQKAAGSPTPTPTTPTPTPTTPTPTPTGSDLGIKLLFAAAKGQDDEVRELLKAGADVNAKDFQGVTPLHIAAQSGHLEIVEVLLKAGADVNAKDVTGDTPLHLAAQHGHLEIVEVLLKAGADVNAQDERGWTPADLAADWGHEDIAEVLQKAA
notes: Bispecific DARPin; also called Construct 6
- EC50 (pM), ADCC reporter assay (luminescence), SKOV3 target cells, E:T 5:1, 5 h [2]: 3.5 pM
- binding result [4]: no binding (tested: 1000 nM)

Now from value to binder:

- binding result [3]: no binding (tested: 400 nM)
- EC50 (pM), ADCC reporter assay (luminescence), SKOV3 target cells, E:T 5:1, 5 h [2]: 0.24 pM
B3: Construct No. 8 (SEQ ID NO: 12), 2D (CD16a × HER2), DARPin #2 with C-terminal HER2 binder of SEQ ID NO: 8 (designed binder)
chain: MRGSHHHHHHGSDLGQKLLRAAKKGQDDEVRELLKAGADVNAKDEQGWTPLHIAAWKGHLEIVEVLLKAGADVNAKDVFDWTPLHVAAHFGHLEIVEVLLKAGADVNAQDRAGETPADLAAQAGHEDIAEVLQKAAGSPTPTPTTPTPTPTTPTPTPTGSDLGKKLLEAARAGQDDEVRELLKAGADVNAKDEYGLTPLYLATAHGHLEIVEVLLKAGADVNAVDAIGFTPLHLAAFIGHLEIAEVLLKAGADVNAQDKFGKTPADIAAGAGNEDIAEVLQKAA
notes: Bispecific DARPin; also called Construct 8

- EC50 (pM), DDCC reporter assay (luminescence), Kasumi-1 target cells, E:T 1:1, 24 h [1]: 120 pM
- Top (RLU), DDCC reporter assay (luminescence), Kasumi-1 target cells [1]: 7870 RLU
B5: Construct No. 23 (SEQ ID NO: 92), CD117 × CD16a, CD117 binder SEQ ID NO: 87 and DARPin #2 (designed binder)
chain: MRGSHHHHHHGSDLGKKLLKAASWGQDDEVRILLAAGADVNAKDNSGWTPLHAAAWYGHLEIVEVLLKAGADVNAKDKTGLTPLHKAAHVGHLEIVEVLLKAGADVNAQDEWGATPADLAASTGHEDIAEVLQKAAGSPTPTPTTPTPTPTTPTPTPTGSDLGQKLLRAAKKGQDDEVRELLKAGADVNAKDEQGWTPLHIAAWKGHLEIVEVLLKAGADVNAKDVFDWTPLHVAAHFGHLEIVEVLLKAGADVNAQDRAGETPADLAAQAGHEDIAEVLQKAA

- binding result [3]: no binding (tested: 400 nM)
- EC50 (pM), ADCC reporter assay (luminescence), SKOV3 target cells, E:T 5:1, 5 h [2]: 0.39 pM
- binding result [4]: no binding (tested: 1000 nM)
B6: Construct No. 5 (SEQ ID NO: 11), 2D (HER2 × CD16a), DARPin #2 with N-terminal HER2 binder of SEQ ID NO: 9 (designed binder)
chain: MRGSHHHHHHGSDLGIKLLFAAAKGQDDEVRELLKAGADVNAKDFQGVTPLHIAAQSGHLEIVEVLLKAGADVNAKDVTGDTPLHLAAQHGHLEIVEVLLKAGADVNAQDERGWTPADLAADWGHEDIAEVLQKAAGSPTPTPTTPTPTPTTPTPTPTGSDLGQKLLRAAKKGQDDEVRELLKAGADVNAKDEQGWTPLHIAAWKGHLEIVEVLLKAGADVNAKDVFDWTPLHVAAHFGHLEIVEVLLKAGADVNAQDRAGETPADLAAQAGHEDIAEVLQKAA
notes: Bispecific DARPin; also called Construct 5

- binding result [5]: no binding (tested: 1000 nM)
- EC50 (pM), ADCC reporter assay (luminescence), SKOV3 target cells, E:T 5:1, 5 h [2]: 0.7 pM
B7: Construct No. 4 (SEQ ID NO: 15), 2D (HER2 × CD16a), DARPin #3 with N-terminal HER2 binder of SEQ ID NO: 9 (designed binder)
chain: MRGSHHHHHHGSDLGIKLLFAAAKGQDDEVRELLKAGADVNAKDFQGVTPLHIAAQSGHLEIVEVLLKAGADVNAKDVTGDTPLHLAAQHGHLEIVEVLLKAGADVNAQDERGWTPADLAADWGHEDIAEVLQKAAGSPTPTPTTPTPTPTTPTPTPTGSDLGKKLLQAARAGQLDEVRELLKAGADVNAKDEQGRTPLHIAAASGHLEIVEVLLKAGADVNAKDWFGITPLHIAAWWGHLEIVEVLLKAGADVNAKDQEGRTPLHIAAAIGHLEIVEVLLKAGADVNAQDKSGKTPADLAARAGHQDIAEVLQKAA
notes: Bispecific DARPin; also called Construct 4
